The values that follow are results of earlier work, collected in paper PMC4245983.

Read-outs that look alike come from different tables or passages of the source.

Series [1] has as its target IscU (Escherichia coli) (UniProt P0ACD4). As to conditions: cited from earlier work.
Series [2] shares this target. The conditions noted are these: cited from earlier work. This is another data set of the same source.

HscA, sequence (P0A6Z1 whole entry): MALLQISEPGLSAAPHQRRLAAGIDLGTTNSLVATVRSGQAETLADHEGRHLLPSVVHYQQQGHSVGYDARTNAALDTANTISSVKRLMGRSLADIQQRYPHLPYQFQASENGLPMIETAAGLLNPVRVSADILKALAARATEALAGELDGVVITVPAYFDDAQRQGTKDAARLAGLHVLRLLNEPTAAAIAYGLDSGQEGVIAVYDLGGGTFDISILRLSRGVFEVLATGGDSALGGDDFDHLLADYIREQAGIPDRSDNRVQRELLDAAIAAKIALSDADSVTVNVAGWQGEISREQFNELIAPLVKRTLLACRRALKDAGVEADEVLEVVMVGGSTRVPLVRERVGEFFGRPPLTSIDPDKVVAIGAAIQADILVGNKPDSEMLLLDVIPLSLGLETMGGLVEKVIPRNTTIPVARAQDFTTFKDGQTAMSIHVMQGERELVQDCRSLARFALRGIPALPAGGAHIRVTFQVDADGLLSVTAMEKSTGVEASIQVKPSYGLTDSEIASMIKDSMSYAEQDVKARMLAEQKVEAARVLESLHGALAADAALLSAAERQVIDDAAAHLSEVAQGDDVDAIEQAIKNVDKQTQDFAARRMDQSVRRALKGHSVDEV
IscU (Escherichia coli), sequence (P0ACD4 whole entry): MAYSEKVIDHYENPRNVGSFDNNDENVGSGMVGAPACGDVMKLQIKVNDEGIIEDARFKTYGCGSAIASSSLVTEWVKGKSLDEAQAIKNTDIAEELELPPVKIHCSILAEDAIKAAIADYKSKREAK

What is called Kd is the equilibrium constant for the complex coming apart. On to HscA (from UniProt P0A6Z1), for which the Kd with IscU (Escherichia coli) [1] was 1.6 µM; in the series with IscU (Escherichia coli) [2], 37 µM.
